The record followed here is patent US20260109758A1 (BIOSION, published 2026).

The target of test [1] is T1, human IL4Rα expressed on 293F-IL4Rα cell surface (human, UniProt P24394 26-825).
T1 construct: whole, on cells; also called human IL4Rα-expressing cells; cell surface IL4R
Nature of the test: cell-based blocking FACS on 293F-IL4Rα cells; blocked ligand biotin human IL4.

Test [2] has as its target T2, recombinant human TSLP-his (human, UniProt Q969D9 29-159, biotin-labeled in the ELISAs).
T2 construct: In-house made; not shown: His tag at the C-terminus
As to the kind of experiment: capture ELISA: antibody captured on anti-human IgG Fc F(ab')2, biotin human TSLP-his, SA-HRP. On the procedure: Briefly, 96-well micro plates were coated with 100 μL 2 μg/mL AffiniPure F(ab′)₂ Fragment Goat Anti-Human IgG, Fey fragment specific (Jackson Immuno Research, Cat #109-006-008) in PBS and incubated overnight at 4° C. Plates were washed 4 times with wash buffer (PBS+0.05% Tween-20, PBST) and then blocked with 200 μL/well blocking buffer (5% w/v non-fatty milk in PBST) for 2 hours at 37° C. […] After the final wash, the plates were incubated with 100 μL/well TMB (Innoreagents). The reaction was stopped 15 minutes later at room temperature with 50 μL/well 1M H₂SO₄, and the absorbance of each well was read on a microplate reader using dual wavelength mode with 450 nm for TMB and 630 nm as the reference wavelength. The OD (450-630) values were plotted against antibody concentration. Data was analyzed using Graphpad Prism and EC₅₀ values were reported.
Background: An ELISA detects its analyte on a solid surface through an enzyme-linked reagent.

Test [3] has as its target T3, recombinant human IL4Rα-his (human, UniProt P24394 26-231, limits assumed, biotin-labeled in the capture ELISA).
T3 construct: In-house made; not shown: His tag at the C-terminus
Nature of the test: competitive ELISA: coated human IL4Rα-his, antibody titrated; blocked ligand biotin human IL4. As to the method: Briefly, 100 μL human IL4Rα-his proteins (prepared in-house, IL4Rα of SEQ ID NO: 33 with C-terminal His tag) were coated on 96-well micro plates at 2 μg/mL in PBS overnight at 4° C. The next day, plates were washed with wash buffer (PBS+0.05% w/v Tween-20, PBST), and blocked with 5% w/v non-fatty milk in PBST for 2 hours at 37° C. Plates were then washed again using wash buffer. Serially diluted bispecific antibodies or the controls (starting at 100 nM with a 5-fold serial dilution) in 2.5% w/v non-fatty milk in PBST, 100 μL per well, were added to the IL4Rα bound plates, and incubated at 37° C. for 40 minutes. […] Plates were washed again using wash buffer. Thereafter, the plates were added with 100 μL/well of streptavidin conjugated HRP (1:10000 dilution in PBST buffer, Jackson Immunoresearch, Cat #016-030-084) and incubated for 40 minutes at 37° C. Plates were washed again using wash buffer. Finally, TMB was added and the reaction was stopped using 1M H₂SO₄, and the absorbance was read at 450 nm. Data was analyzed using Graphpad Prism and IC₅₀ values were reported.

Test [4] deals with T4, biotin-labeled human TSLP-Fc (human, biotin-labeled).
T4 construct: also called TSLP-Fc protein; TSLP-Fc-biotin
As to the kind of experiment: cell-based blocking FACS: antibody pre-mixed with biotin human TSLP-Fc; blocked binding to cell-surface TSLPR/IL7Ra on HEK293T-TSLPR/IL7R/STAT5-Luc 5C5 cells. On the procedure: (§1) The cells were prepared following the instruction of lipofectamine 3000 transfection reagent (Thermo Fisher), by transfecting HEK293T cells (ATCC® CRL-11268) with pCMV-T-P plasmids inserted with TSLPR coding sequence between EcoRI and Xba1 sites and pCMV3-SP plasmids inserted with IL7Ra coding sequence between HindIII and Xba1 sites as well as pGL4.52 [luc2P/STAT5RE/Hygro](Promega).
(§2) The cells were harvested from cell culture flasks, washed twice and re-suspended in phosphate buffered saline (PBS) containing 2% v/v Fetal Bovine Serum (FACS buffer). […] Cells were washed twice with FACS buffer, and then added and incubated with 100 μL/well R-Phycoerythrin Streptavidin (1:500 dilution in FACS buffer, Jackson Immunoresearch, Cat #016-110-084) for 40 minutes at 4° C. in dark. Cells were washed twice and re-suspended in FACS buffer. Fluorescence was measured using a Becton Dickinson FACS Canto II-HTS equipment. Data was analyzed using Graphpad Prism and IC₅₀ values were reported.

In test [5] the target is human IL4Rα on HEK293T-IL4R/STAT6/STAT6-Luc LB2 cells (human, UniProt P24394 26-825). Nature of the test: cell-based or functional assay.
In test [6] the target is T3, recombinant human IL4Rα-his. Nature of the test: capture ELISA: antibody captured on anti-human IgG Fc F(ab')2, biotin human IL4Rα-his, SA-HRP. On the procedure: Briefly, 96-well plates were coated with 2 μg/mL AffiniPure F(ab′)₂ Fragment Goat Anti-Human IgG, Fey fragment specific (Jackson Immuno Research, Cat #109-006-008) in PBS, 100 μL/well, overnight at 4° C. Plates were washed once with wash buffer (PBS+0.05% w/v Tween-20, PBST) and then blocked with 200 μL/well blocking buffer (5% w/v non-fatty milk in PBST) for 2 hours at 37° C. […] After a final wash, plates were incubated with 100 μL/well ELISA substrate TMB (Innoreagents, Cat #TMB-S-002). The reaction was stopped in 10 minutes at 25° C. with 50 μL/well 1M H₂SO₄, and the absorbance was read on a microplate reader using dual wavelength mode with 450 nm for TMB and 630 nm as the reference wavelength. Data was analyzed using Graphpad Prism and EC₅₀ values were reported.

The target of test [7] is T4, biotin-labeled human TSLP-Fc. Nature of the test: cell-based blocking FACS: antibody pre-mixed with biotin human TSLP-Fc; blocked binding to cell-surface TSLPR/IL7Ra on HEK293T-TSLPR/IL7R/STAT5-Luc 5C5 cells. On the procedure:
as §1, §2
The source holds these as a separate data set.

Read-outs that look alike come from different tables or passages of the source.

B1: BSI-502-007 (bispecific antibody, human IgG1, kappa)
heavy: QVQLVQSGAEVKKPGASVKVSCKASGYTFTTYWMHWVRQAPGQGLEWMGVIDPSDSDTTYNQKFKGRVTMTRDTSTSTVYMELSSLRSEDTAVYYCTRSLDGYYDYWGQGTLVTVSSGGGGSGGGGSGGGGSGGGGSDIQMTQSPSSLSASVGDRVTITCRPTENIYSYLAWYQQKPGKAPKLLIYFARTLAEGVPSRFSGSGSGTDFTLTISSLQPEDFATYYCQHHYGTPWTFGGGTKVEIKGGGGSGGGGSEVQLVESGGGLVQPGGSLRLSCAASGFTFSTYGMSWVRQAPGKGLVWVATINSNGGSTSYPDSVKGRFTISRDNAKNTLYLQMNSLRAEDTAVYYCARFFRFRNAMDYWGQGTLVTVSSASTKGPSVFPLAPSSKSTSGGTAALGCLVKDYFPEPVTVSWNSGALTSGVHTFPAVLQSSGLYSLSSVVTVPSSSLGTQTYICNVNHKPSNTKVDKKVEPKSCDKTHTCPPCPAPEAQGGPSVFLFPPKPKDTLYITREPEVTCVVVDVSHEDPEVKFNWYVDGVEVHNAKTKPREEQYNSTYRVVSVLTVLHQDWLNGKEYKCQVSNKALPAPIEKTISKAKGQPREPQVYTLPPSRDELTKNQVSLTCLVKGFYPSDIAVEWESNGQPENNYKTTPPVLDSDGSFFLYSKLTVDKSRWQQGNVFSCSVMHEALHNHYTQKSLSLSPG
light: DIQMTQSPSSLSASVGDRVTITCRTSENIYSYLAWYQQKPGKAPKFLVYNAKTLAEGVPSRFSGSGSGTDFTLTISSLQPEDFATYYCQHYYGPPTWTFGQGTKVEIKRTVAAPSVFIFPPSDEQLKSGTASVVCLLNNFYPREAKVQWKVDNALQSGNSQESVTEQDSKDSTYSLSSTLTLSKADYEKHKVYACEVTHQGLSSPVTKSFNRGEC
notes: huC2C1A1A1-V15 IgG with an anti-TSLP scFv (VH-VL) at the N-terminus of the heavy chain; AQQ and YTE already stand in the entry
As for B1, the IC50 (in general, the midpoint of a concentration-inhibition curve) in test [1] is 0.199 nM; in test [3], 0.212 nM; in test [4] it was 1.12 nM. For the same molecule, the EC50 (as a rule, the concentration giving half of the maximal effect) in test [2] is 0.0844 nM.

B2: BSI-502-003 (bispecific antibody, human IgG1, kappa)
heavy: EVQLVESGGGLVQPGGSLRLSCAASGFTFSTYGMSWVRQAPGKGLVWVATINSNGGSTSYPDSVKGRFTISRDNAKNTLYLQMNSLRAEDTAVYYCARFFRFRNAMDYWGQGTLVTVSSGGGGSGGGGSGGGGSGGGGSDIQMTQSPSSLSASVGDRVTITCRTSENIYSYLAWYQQKPGKAPKFLVYNAKTLAEGVPSRFSGSGSGTDFTLTISSLQPEDFATYYCQHYYGPPTWTFGQGTKVEIKGGGGSGGGGSQVQLVQSGAEVKKPGASVKVSCKASGYTFTTYWMHWVRQAPGQGLEWMGVIDPSDSDTTYNQKFKGRVTMTRDTSTSTVYMELSSLRSEDTAVYYCTRSLDGYYDYWGQGTLVTVSSASTKGPSVFPLAPSSKSTSGGTAALGCLVKDYFPEPVTVSWNSGALTSGVHTFPAVLQSSGLYSLSSVVTVPSSSLGTQTYICNVNHKPSNTKVDKKVEPKSCDKTHTCPPCPAPEAQGGPSVFLFPPKPKDTLYITREPEVTCVVVDVSHEDPEVKFNWYVDGVEVHNAKTKPREEQYNSTYRVVSVLTVLHQDWLNGKEYKCQVSNKALPAPIEKTISKAKGQPREPQVYTLPPSRDELTKNQVSLTCLVKGFYPSDIAVEWESNGQPENNYKTTPPVLDSDGSFFLYSKLTVDKSRWQQGNVFSCSVMHEALHNHYTQKSLSLSPG
light: DIQMTQSPSSLSASVGDRVTITCRPTENIYSYLAWYQQKPGKAPKLLIYFARTLAEGVPSRFSGSGSGTDFTLTISSLQPEDFATYYCQHHYGTPWTFGGGTKVEIKRTVAAPSVFIFPPSDEQLKSGTASVVCLLNNFYPREAKVQWKVDNALQSGNSQESVTEQDSKDSTYSLSSTLTLSKADYEKHKVYACEVTHQGLSSPVTKSFNRGEC
notes: hu1C5F12E9-V8 IgG with an anti-IL4R scFv (huC2C1A1A1-V15, VH-VL) at the N-terminus of the heavy chain; AQQ and YTE already stand in the entry
For the molecule B2, in test [5], the “Inhibition on IL4 induced STAT6 phosphorylation (IC50, nM)” value was 0.0221 nM and the “Inhibition on IL13 induced STAT6 phosphorylation (IC50, nM)” value is 0.0306 nM. In addition, the EC50 in test [6] stood at 0.0416 nM. This molecule yielded an IC50 in test [7] of 1.47 nM.

B3: BSI-502-005 (bispecific antibody, human IgG1, kappa)
heavy: QVQLVQSGAEVKKPGASVKVSCKASGYTFTTYWMHWVRQAPGQGLEWMGVIDPSDSDTTYNQKFKGRVTMTRDTSTSTVYMELSSLRSEDTAVYYCTRSLDGYYDYWGQGTLVTVSSASTKGPSVFPLAPSSKSTSGGTAALGCLVKDYFPEPVTVSWNSGALTSGVHTFPAVLQSSGLYSLSSVVTVPSSSLGTQTYICNVNHKPSNTKVDKKVEPKSCDKTHTCPPCPAPEAQGGPSVFLFPPKPKDTLYITREPEVTCVVVDVSHEDPEVKFNWYVDGVEVHNAKTKPREEQYNSTYRVVSVLTVLHQDWLNGKEYKCQVSNKALPAPIEKTISKAKGQPREPQVYTLPPSRDELTKNQVSLTCLVKGFYPSDIAVEWESNGQPENNYKTTPPVLDSDGSFFLYSKLTVDKSRWQQGNVFSCSVMHEALHNHYTQKSLSLSPGKGGGGSGGGGSEVQLVESGGGLVQPGGSLRLSCAASGFTFSTYGMSWVRQAPGKGLVWVATINSNGGSTSYPDSVKGRFTISRDNAKNTLYLQMNSLRAEDTAVYYCARFFRFRNAMDYWGQGTLVTVSSGGGGSGGGGSGGGGSGGGGSDIQMTQSPSSLSASVGDRVTITCRTSENIYSYLAWYQQKPGKAPKFLVYNAKTLAEGVPSRFSGSGSGTDFTLTISSLQPEDFATYYCQHYYGPPTWTFGQGTKVEIK
light: DIQMTQSPSSLSASVGDRVTITCRPTENIYSYLAWYQQKPGKAPKLLIYFARTLAEGVPSRFSGSGSGTDFTLTISSLQPEDFATYYCQHHYGTPWTFGGGTKVEIKRTVAAPSVFIFPPSDEQLKSGTASVVCLLNNFYPREAKVQWKVDNALQSGNSQESVTEQDSKDSTYSLSSTLTLSKADYEKHKVYACEVTHQGLSSPVTKSFNRGEC
notes: hu1C5F12E9-V8 IgG with an anti-IL4R scFv (VH-VL) at the C-terminus of the heavy chain; AQQ and YTE already stand in the entry
B3: the IC50 in test [1] is 0.381 nM; in test [3], 0.449 nM; in test [4] it was 1.39 nM. In addition, the EC50 in test [2] is 0.106 nM.
